Assay results: article PMC6530996, “HspB1 phosphorylation regulates its intramolecular dynamics and mechanosensitive molecular chaperone interaction with filamin C” (Science Advances, 2019)
Each block holds one molecule with its values, some of them ahead of it. Non-standard residues stand in square brackets, D forms with d. No end group written: not given here. pS = N[C@@H](COP(=O)(O)O)C(=O)O

How the values were obtained:
HspB1_84–170 = test: crystal structure of HspB1_84–170 with PPR peptide; format: binding, human; conditions: X-ray, 5 mM peptide, space group P12_11, 2.1 Å
Description: We next carried out crystallographic trials, using a strategy of mixing peptide mimics of the PPR, varying in length and degree of phosphorylation, with a well-ordered ACD construct (HspB1_84–170). […] The monomers within each dimer differ at their N-terminal ends: The β2 strand of one is intramolecularly hydrogen-bonded to its own β3 strand, whereas in the other these residues are extended and stabilized by contacts with a β4-β8 groove of a neighboring dimer (Fig. 3, A and B). This groove also acts as a binding pocket for an intrasubunit interface within the C-terminal region (fig. S4B) ([29]).
Crystals were obtained following initial screens using HspB1_84–170 (18 mg ml^−1) with a fourfold molar excess of one of several peptide mimics of the N-terminal region varying in length and degree of phosphorylation. […]
Diffraction data were integrated using iMosflm and scaled and merged using Aimless in the CCP4 suite with truncation at 2.1 Å. Phases were determined by molecular replacement using Phaser with a previous HspB1 x-ray structure input as a search model (PDB 4MJH, modified by removal of flexible loops, bound C-terminal peptide, and β2 strands). […]

[1] = molecular target: filamin C (FLNC) domains 18-21, 1943-2408 (UniProt Q14315); test: gas-phase collisional dissociation, tandem native MS; conditions: reference: unphosphorylated HspB1 80-88 peptide; sites S82
[2] = native MS of HspB1_77–171 oligomeric state; format: physicochemical; conditions: 10 μM, 200 mM ammonium acetate pH 6.9, 10-fold molar excess DTT
Description: To test this hypothesis, we recorded mass spectra under conditions preserving noncovalent interactions. […] The combined NMR and mass spectrometry (MS) data are therefore consistent with phosphorylation modulating an order-to-disorder transition by β2 and the PPR that leads to oligomer dissociation via rearrangement of intradimer contacts.
A pET28d(+) vector encoding human HspB1 ACD (residues 84 to 171) was transformed into Escherichia coli BL21(DE3) cells (Agilent) and expressed and purified as described previously ([29]). For crystallography, residue K171 was deleted using a site-directed mutagenesis kit (Agilent) and HspB1_84–170 was expressed and purified as described. […] Concentrations were determined by using a bicinchoninic acid assay (Thermo Pierce).
Because HspB1 can form disulfide-linked dimers, experiments involving the ACD were performed in the presence of 10-fold molar excess DTT. […] Native MS and IM-MS data were recorded on a Synapt G1 mass spectrometer (Waters) modified for the transmission of intact noncovalent protein complexes. HspB1_77–171 variants were analyzed at a concentration of 10 μM in 200 mM ammonium acetate (pH 6.9). […]

[3] = molecular target: T1, HspB1_(84–170), ACD construct for crystallography (human, UniProt P04792 84-170); test: crystal structure; HspB1_(84–170) 16 mg/ml with 5 mM peptide in PBS pH 7.0; 22% PEG 3350, 0.02 M sodium potassium diphosphate, 0.1 M bis-tris propane pH 7.5; 2.1 Å, space group P12_(1)1; conditions: both partners purified
T1 construct: human HspB1 ACD, residues 84 to 170 (K171 deleted from the 84-171 construct); Dimer in the crystal (four dimers in the asymmetric unit); The residual Gly-Ser overhang that the methods tell of 'both proteins' may also stand on this construct; also called HspB1 ACD

[4] = molecular target: T2, FLNC_(d18–21,ΔI), FLNC domains 18 to 21 lacking the d20 insertion (human, UniProt Q14315 1943-2408, excluding 2163 to 2243); test: native MS; native IM-MS of mixtures of FLNC_(d18–21) or FLNC_(d18–21,ΔI) with HspB1_(84–171), HspB1 peptides or an excess of control peptides; 200 mM ammonium acetate pH 6.9; conditions: both partners purified
T2 construct: human filamin C, residues 1943 to 2408 of UniProt Q14315 excluding 2163 to 2243; The results speak of 82 insertion residues; 2163 to 2243 are 81; source: E. coli BL21(DE3) pLysS, purified (HisTrap, SEC Superdex 200)
T2 sequence (looked up): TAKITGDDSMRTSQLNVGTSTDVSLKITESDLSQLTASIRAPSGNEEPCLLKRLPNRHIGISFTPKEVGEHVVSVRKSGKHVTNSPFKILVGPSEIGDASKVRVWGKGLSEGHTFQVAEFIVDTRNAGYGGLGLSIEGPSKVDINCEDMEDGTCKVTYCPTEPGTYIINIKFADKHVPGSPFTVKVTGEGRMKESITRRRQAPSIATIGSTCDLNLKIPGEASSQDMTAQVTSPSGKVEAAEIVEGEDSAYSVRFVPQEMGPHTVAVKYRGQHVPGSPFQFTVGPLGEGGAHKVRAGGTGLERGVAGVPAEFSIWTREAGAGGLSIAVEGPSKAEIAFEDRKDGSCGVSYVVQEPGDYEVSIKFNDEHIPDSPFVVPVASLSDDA

[5] = molecular target: T3, human FLNC domains 18 to 21 (FLNC_(d18–21)), EEF-tagged (human, UniProt Q14315 1943-2408); test: as above; conditions: both partners purified
T3 construct: human filamin C, domains 18 to 21, residues 1943 to 2408 of UniProt Q14315; Modified pET23a/EEF vector; No cleavage of the tags is described; also called FLNC fragment; source: E. coli BL21(DE3) pLysS, purified (HisTrap, SEC Superdex 200); not shown: EEF, C-terminal, kept
T3 sequence (looked up): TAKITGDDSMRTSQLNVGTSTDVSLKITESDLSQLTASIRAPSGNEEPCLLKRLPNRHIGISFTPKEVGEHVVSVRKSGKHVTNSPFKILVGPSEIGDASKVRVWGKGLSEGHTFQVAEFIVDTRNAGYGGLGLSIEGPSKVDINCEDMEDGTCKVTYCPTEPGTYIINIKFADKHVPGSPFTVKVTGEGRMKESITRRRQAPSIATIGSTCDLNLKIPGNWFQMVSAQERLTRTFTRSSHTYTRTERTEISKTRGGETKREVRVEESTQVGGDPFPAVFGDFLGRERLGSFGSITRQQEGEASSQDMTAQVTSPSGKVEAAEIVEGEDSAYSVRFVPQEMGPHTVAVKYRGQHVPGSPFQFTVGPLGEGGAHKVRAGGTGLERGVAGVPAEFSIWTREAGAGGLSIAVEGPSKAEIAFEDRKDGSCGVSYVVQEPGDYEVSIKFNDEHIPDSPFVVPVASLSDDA

[6] = molecular target: T3, human FLNC domains 18 to 21 …; test: native MS; titration: FLNC_(d18–21) constant at 5 μM, peptide 5 to 160 μM, 200 mM ammonium acetate pH 6.9, acetonitrile vapor; fit with three equivalent binding sites (UniDec); conditions: both partners purified
[7] = molecular target: T3, human FLNC domains 18 to 21 …; test: cell-based or functional assay

filamin C (FLNC) domains 18-21, 1943-2408, sequence (Q14315 whole entry, looked up, tested part not stated): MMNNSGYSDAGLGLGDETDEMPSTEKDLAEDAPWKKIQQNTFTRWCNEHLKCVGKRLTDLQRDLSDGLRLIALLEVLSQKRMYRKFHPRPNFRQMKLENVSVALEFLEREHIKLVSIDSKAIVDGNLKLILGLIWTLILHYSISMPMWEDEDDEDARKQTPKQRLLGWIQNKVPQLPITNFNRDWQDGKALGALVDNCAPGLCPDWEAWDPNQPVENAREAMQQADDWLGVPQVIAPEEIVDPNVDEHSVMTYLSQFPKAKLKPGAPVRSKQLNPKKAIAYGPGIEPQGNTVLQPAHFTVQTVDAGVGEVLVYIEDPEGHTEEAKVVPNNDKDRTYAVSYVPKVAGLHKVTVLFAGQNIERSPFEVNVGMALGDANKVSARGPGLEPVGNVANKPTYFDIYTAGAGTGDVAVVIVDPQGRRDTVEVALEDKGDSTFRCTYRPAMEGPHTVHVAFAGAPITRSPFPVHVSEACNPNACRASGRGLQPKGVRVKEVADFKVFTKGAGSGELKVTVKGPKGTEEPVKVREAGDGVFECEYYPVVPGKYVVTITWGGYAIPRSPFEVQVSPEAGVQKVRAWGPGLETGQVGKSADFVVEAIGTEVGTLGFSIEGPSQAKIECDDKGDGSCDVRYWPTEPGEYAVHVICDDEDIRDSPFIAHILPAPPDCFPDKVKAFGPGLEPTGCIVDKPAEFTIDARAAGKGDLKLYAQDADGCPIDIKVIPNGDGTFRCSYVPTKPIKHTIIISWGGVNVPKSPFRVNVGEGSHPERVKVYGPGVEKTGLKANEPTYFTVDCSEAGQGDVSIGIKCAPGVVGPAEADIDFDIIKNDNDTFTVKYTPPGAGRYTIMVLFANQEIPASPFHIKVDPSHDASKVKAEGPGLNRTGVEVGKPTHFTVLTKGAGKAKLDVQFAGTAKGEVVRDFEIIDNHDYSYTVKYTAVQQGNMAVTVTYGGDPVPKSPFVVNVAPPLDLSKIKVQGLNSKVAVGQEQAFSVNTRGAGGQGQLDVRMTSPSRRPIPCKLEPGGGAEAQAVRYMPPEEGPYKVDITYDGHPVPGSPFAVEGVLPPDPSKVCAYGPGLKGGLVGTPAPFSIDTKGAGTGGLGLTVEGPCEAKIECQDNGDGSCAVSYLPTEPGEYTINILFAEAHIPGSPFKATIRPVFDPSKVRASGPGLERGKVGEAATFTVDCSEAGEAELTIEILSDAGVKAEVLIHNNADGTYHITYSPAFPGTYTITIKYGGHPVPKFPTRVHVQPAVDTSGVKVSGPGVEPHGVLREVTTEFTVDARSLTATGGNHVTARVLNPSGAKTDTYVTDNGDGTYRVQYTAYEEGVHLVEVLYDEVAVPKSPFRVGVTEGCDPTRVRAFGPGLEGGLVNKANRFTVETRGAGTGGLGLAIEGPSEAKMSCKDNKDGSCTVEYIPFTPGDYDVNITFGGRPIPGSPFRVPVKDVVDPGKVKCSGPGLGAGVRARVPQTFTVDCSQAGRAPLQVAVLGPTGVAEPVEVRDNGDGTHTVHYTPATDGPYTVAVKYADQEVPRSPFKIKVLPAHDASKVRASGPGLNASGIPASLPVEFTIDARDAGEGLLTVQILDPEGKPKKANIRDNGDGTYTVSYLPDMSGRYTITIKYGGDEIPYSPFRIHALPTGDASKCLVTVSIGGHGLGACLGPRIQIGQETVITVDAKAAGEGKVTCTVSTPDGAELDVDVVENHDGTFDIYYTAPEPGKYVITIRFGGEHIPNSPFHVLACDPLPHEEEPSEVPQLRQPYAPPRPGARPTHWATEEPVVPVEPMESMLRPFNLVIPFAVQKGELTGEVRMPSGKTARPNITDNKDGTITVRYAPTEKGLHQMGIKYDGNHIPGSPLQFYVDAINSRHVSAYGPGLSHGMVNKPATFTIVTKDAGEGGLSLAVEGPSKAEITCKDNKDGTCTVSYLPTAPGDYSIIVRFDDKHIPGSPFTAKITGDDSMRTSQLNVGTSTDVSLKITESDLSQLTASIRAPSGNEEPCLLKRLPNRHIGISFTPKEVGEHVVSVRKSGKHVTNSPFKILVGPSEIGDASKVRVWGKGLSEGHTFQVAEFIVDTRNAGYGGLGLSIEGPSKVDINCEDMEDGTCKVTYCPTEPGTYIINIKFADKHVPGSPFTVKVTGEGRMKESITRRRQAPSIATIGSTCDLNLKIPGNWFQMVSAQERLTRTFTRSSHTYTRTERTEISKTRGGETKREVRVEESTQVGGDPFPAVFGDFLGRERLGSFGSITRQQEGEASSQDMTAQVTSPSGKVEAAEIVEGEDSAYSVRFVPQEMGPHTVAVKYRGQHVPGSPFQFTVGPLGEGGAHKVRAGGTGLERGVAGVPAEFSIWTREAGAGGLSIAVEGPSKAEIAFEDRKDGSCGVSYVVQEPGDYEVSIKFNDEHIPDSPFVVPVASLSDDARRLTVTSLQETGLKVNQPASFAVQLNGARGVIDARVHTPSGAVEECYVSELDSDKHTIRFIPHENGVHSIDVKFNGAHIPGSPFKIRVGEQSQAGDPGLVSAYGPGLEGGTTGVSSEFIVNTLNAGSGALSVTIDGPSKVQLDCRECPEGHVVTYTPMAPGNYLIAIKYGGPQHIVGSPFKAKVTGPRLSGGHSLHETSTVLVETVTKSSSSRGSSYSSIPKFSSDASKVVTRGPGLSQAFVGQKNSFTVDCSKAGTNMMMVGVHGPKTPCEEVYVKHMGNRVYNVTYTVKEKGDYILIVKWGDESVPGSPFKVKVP
T1 sequence (P04792 84-170): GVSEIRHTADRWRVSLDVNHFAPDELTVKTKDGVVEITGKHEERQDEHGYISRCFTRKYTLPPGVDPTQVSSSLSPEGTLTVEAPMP

Molecule: ALSRQL^PSSGVSEI [^P82HspB1_76–88, Peptide from human HspB1 phosphorylated at S82, captured in part in crystal structure]
binding to HspB1_84–170 in crystal (HspB1_84–170): structure of HspB1_84–170 bound to ALSRQL^PSSGVSEI

other: inflection point(s) of breakdown curve [1]: stronger; reference ≈55 and ≈110
Molecule: HspB1 (Hsp27) 80-88 (from UniProt P04792) pS82 HspB1 80-88 peptide

Molecule: HspB1_77–171: Human HspB1 ACD extended at the N-terminus to encompass the principle phosphorylation region (PPR)
oligomeric state [2]: populates a monomer-dimer equilibrium

Molecule: ^2PHspB1_77–171: Human HspB1 ACD and PPR with phosphomimic substitutions S78E and S82D
oligomeric state [2]: phosphomimicry shifts the oligomeric state toward the monomer

binding result [3]: binds
B1: ^P82HspB1_(76–88), peptide mimic of the PPR phosphorylated at Ser82 (peptide)
peptide: ALSRQL[pS]SGVSEI
notes: human HspB1 residues 76 to 88; Only 3 to 6 residues of the peptide could be built in the density; also called PPR peptide; source: synthetic peptide, bought: Biomatik

binding result [4]: binds
stoichiometry N [5]: ≤ 2
Kd [6]: 130 ± 17 µM
stoichiometry N [6]: ≤ 3
activation required for the transition of unfolding intermediate B to final state C of FLNC_(d18–21) with one peptide bound (coulombically steered unfolding, IM-MS) [7]: ~60 V
B2: HspB1_(80–88) peptide (peptide, UniProt P04792 80-88, looked up)
peptide: QLSSGVSEI
notes: The methods say that N termini were acetylated 'when the N-terminal residue was Glu'; this peptide begins with Gln, so whether it was acetylated is open; also called unphosphorylated peptide; source: synthetic peptide, bought: Biomatik
